# Test: yeast display, Sf9 membrane polyspecificity reagent, FACS + sequencing; frameworks hold sequencing errors
# In short: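 Genes from sorted yeast were amplified by colony PCR, read by MiSeq 2 × 250 sequencing and filtered on CDR length. These cells carried a synthetic nanobody library in Saccharomyces cerevisiae BJ5465 and were sorted by FACS into low and high (top ~1%) gates on anti-HA and streptavidin fluorescence. Polyreactivity is labelled according to the gate of origin.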
row,Sequence,polyreactivity (PSR sort gate)
1,QVQLVESGGGLVQAGGSLRLSCAASGSIFLYYAMGWYRQAPGKERELVAAISYSGASTYYADSVKGRFTISRDNAKNTVYLQMNSLKPEDTAVYYCARDYGQYVGEGCYWGQGTQVTVSS,low polyreactivity
2,QVQLVESGGGLVQAGGSLRLSCAASGSIFLYYAMGWYRQAPGKERELVAVITSGGITNYADSVKGRFTISRDNAKNTFYLQMNSLKPEDTAVYYCNKEYYITYFDLVYSSLDYWGQGTQVTVSS,low polyreactivity
3,QVQLVESGGGLVQAGGSLRLSCAASGSIFLYYAMGWYRQAPGNERELVAGINRVGSTNYADSVKGRFTISRDNAKNTVYLQMNSLKPEDTAVYYCNKRATRSRRRGYWGQGTQVTVSS,low polyreactivity
4,QVQLVESGGGLVQAGGSLRLSCAASGSIFNANAMGLYIQAPGKERELVASISGGAGSTYYADSVKGRFTISRDNAKNTVYLQMNSLKPEDTAVYYCNARWQEPLKYDYWGQGTQVTVSS,low polyreactivity
5,QVQLVESGGGLVQAGGSLRLSCAASGSIFNAYDMGWYRQAPGKERELVAGISSSDSTYYADSVKGRFTISRDNAKNTVYLQMNSLIPEDTAVYYCAADPVFAAAYIHLYGIYDSWGQGTQVTVSS,low polyreactivity
6,QVQLVESGGGLVQAGGSLRLSCAASGSIFNGNDMGWYRQAPGKERELVASITSNGGRTYYADSVKGRVTISRDNAKNTVYLQMNSLKPEDTAVYYCAAGYYILYIWKFDYWGQGTQVTVSS,high polyreactivity
7,QVQLVESGGGLVQAGGSLRLSCAASGSIFNGYAMGWYRQAPGKERELVAAISWSGVGTYYADSVKGRFTISRDNAKNTVYLQMNSLKPEDTAVYYCAAALPLVDFYDYWGQGTQVTVSS,low polyreactivity
8,QVQLVESGGGLVQAGGSLRLSCAASGSIFNGYVMGWYRQAPGKERELVAAISSGGRTYYADSVKGRFTISRDNAKNTVYLQMNSLKPEDTAVYYCNAYWLHYPSRVRKITAYDYWGQGTQVTVSS,low polyreactivity
9,QVQLVESGGGLVQAGGSLRLSCAASGSIFNINVMGWYRQAPGKEREMVAAINSGTSTYYADSVKGRFTISRDNAKNTVYLQMNSLKPEDTAVYYCAARNLFTGRRLFYYWGQGTQVTVSS,low polyreactivity
10,QVQLVESGGGLVQAGGSLRLSCAASGSIFNPNAMGWYRQAPGKETELVAAISWISGRTYYADSGKGRFTISRDNAKNTVYLQMISLKTEDTAVYYCAARYPLTQSKYYYWGQWTQVTVSS,high polyreactivity
11,QVQLVESGGGLVQAGGSLRLSCAASGSIFNPYTMGWYRQAPGKEREMVAAISASGGSTYYADSVKGRFTISRDNAKNTVYLQMNSLKPEDTAVYYCNVYRITRHSYNFGFDYWGQGTQVTVSS,low polyreactivity
12,QVQLVESGGGLVQAGGSLRLSCAASGSIFNRNAMGWYRQAPGKERELVAAISNSGARTYYADSVKGRFTISRDNAKNTVYLQMNSLKPEDTAVYYCNDVRRRSKLYNYWGQGTQVTVSS,high polyreactivity
13,QVQLVESGGGLVQAGGSLRLSCAASGSIFNRYAMGWFRQAPGKERELVAAISRRGAGTYYADSVKGRFTISRDNAKNTVYLQMNSLKPEDTAVYYCAATLSYTGSKRYDYWGQGTQVTVSS,high polyreactivity
14,QVQLVESGGGLVQAGGSLRLSCAASGSIFNRYAMGWYRQAPGKEREIVAAISTHTGTTYYADSVKGRFTISRDNAKNTVYLQMNSLKPEDTAVYYCDKRSRYGYGKSYDYWGQGTQVTVSS,high polyreactivity
15,QVQLVESGGGLVQAGGSLRLSCAASGSIFNRYTMGWYRQAPGKERELVAAISKRGGSTYYADSVKGRFTISRDNAKNTVYLQMNSLKPEDTAVYYCAAAGYHSGKGGGYWGQGTQVTVSS,high polyreactivity
16,QVQLVESGGGLVQAGGSLRLSCAASGSIFNSYAMGWSRQAPGKERELVAAISSGGGRTYYADSVKGRFTISRDNAKNTVYLQMNSLKPEDTAVYYCNARAVYRFDYWGQGTQVTVSS,high polyreactivity
17,QVQLVESGGGLVQAGGSLRLSCAASGSIFNTIALGWYRQAPGKESELVASISSDGGTNYADSLKGRFTISRDNAKNTVYLQMNRLKPEDTAVYACATTQEYSGQRTPGYDYWGQVTQVTVSS,low polyreactivity
18,QVQLVESGGGLVQAGGSLRLSCAASGSIFNTYAMGWYRQAPGKERELVAAISRSGDSTYYADSVKGRFTISRDNAKNTVYVQMNSLKPEDSAVYYCATGRTDHGYYYWGQGTQVTVSS,high polyreactivity
19,QVQLVESGGGLVQAGGSLRLSCAASGSIFNTYAMGWYRQAPGKERELVAAITWSGGSTYYADSVKGRFTISRDNAKNTVYLQRNSLKPEDTAVYDCAARQRRQSYWGQGTQVTVSS,high polyreactivity
20,QVQLVESGGGLVQAGGSLRLSCAASGSIFNVNAMGWYRQAPGKERELVAAISSGGNTNYADSVKGRFTFSRDNAKNTVYLQMNRLKPEDTAVYYCATGGYYSAIVYGGYDYWGQGTQVTVSS,low polyreactivity
21,QVQLVESGGGLVQAGGSLRLSCAASGSIFNWYAMGWYTQAPGKERELVAAISWRCGSTYYADSVKGRFTISRDNAKITVYLQMNSLKPEDTAVYYCAADGGADHMDYWGQGTQVTVSS,high polyreactivity
22,QVQLVESGGGLVQAGGSLRLSCAASGSIFNYNAMGWYRQAPGKERELVAGITTSGGSTYYADSVKGRFTISRDNAKKTVYLQMNSLKPEDTAVYYCAAYDYISSTYFLDDYWGQGTQVTVSS,low polyreactivity

row,Sequence,polyreactivity (PSR sort gate)
1,QVQLVESGGGLVQAGGSLRLSCAASGSIFNYNAMGWYRQEPGKERVLVATINKRAGRTYYADSVKGRFTISRDNAKNTFYLQMNSLNPEETAVYYCAAYGRNYSIYDYWGQGTQVTVSS,high polyreactivity
2,QVQLVESGGGLVQAGGSLRLSCAASGSIFNYNTMGWYRQAPGKERELVADISWSGGSTYYADSVKGRFTISRDNAKNTVYLQMNSLKPEDTAVYYCAADFGLFPYVGTGYYFWGQGTQVTVSS,low polyreactivity
3,QVQLVESGGGLVQAGGSLRLSCAASGSIFNYYAMGWYRQAPGKEMELVAGITTSGGYTYYADSVKGRFTISSDNAKNTVYLQMNSLKPEDTAVYYCAAYDYISSTYFLDDYWGQGTQVTVSS,low polyreactivity
4,QVQLVESGGGLVQAGGSLRLSCAASGSIFNYYAMGWYRQAPGKERELVAAITYGGASTYYADSVKGRFTISRDNAKNTVYLQMNSLKPEDTAVYYCAADSFTRWVFYRSTVRGFGYWGQGTQVTVSS,high polyreactivity
5,QVQLVESGGGLVQAGGSLRLSCAASGSIFNYYGMGWYRQAPGKEREFVAAITSNGGTTYYADSVKGRFTISRDNAKNTVYLQMNSLKPEDTAVYYCADRPRYYWRGYDYWGLGTQVTVSS,high polyreactivity
6,QVQLVESGGGLVQAGGSLRLSCAASGSIFNYYVMGWYRQAPGKERELVAGIRWNGGSTYYADSVKGRFTISRDNAKNTVYLQMNSLKPEDTAVYYCAAQAWWGYYSRGPMDYWGQGTQVTVSS,low polyreactivity
7,QVQLVESGGGLVQAGGSLRLSCAASGSIFNYYVMGWYRQAPGKERELVAGIRWNGGSTYYADSVKGRFTISRDNAKNTVYLQMNSLKPEDTAVYYFAAQAWWGYYSRGPMDYWGQGTQVTVSS,low polyreactivity
8,QVQLVESGGGLVQAGGSLRLSCAASGSIFPANAMGWYRQAPGKERELVAAISGRGGRTYYADSVKGRFTISRDNAKNTVYLQMNSLKPEDTAVYYCNKVGPLVGGVKYYYWGQGTQVTVSS,high polyreactivity
9,QVQLVESGGGLVQAGGSLRLSCAASGSIFPAYALGWYRPAPGKERELVAAITSSCGSTYYADSVKGRFTISRDNAKNTVYLQMNSLKPEDTAVYYCATVYPGDSYVYRFDYWGQGTQVTVSS,low polyreactivity
10,QVQLVESGGGLVQAGGSLRLSCAASGSIFPAYAMGWYRQAPGKEREFVAAISGTGGITYYADSVKGRFTISRDNAKNTVYLQMNSLKPEDTEVYYCAAPVYNRYYYWGQGTQVTVSS,low polyreactivity
11,QVQLVESGGGLVQAGGSLRLSCAASGSIFPDNVMGWYRQATGKERELVAAISRTGGSTYYADSVKGRFTISRDNAKNTVYLQMNSLKPEDTAVYYCNAKYRVPYAVGGDYGYWGQGTQVTVSS,high polyreactivity
12,QVQLVESGGGLVQAGGSLRLSCAASGSIFPDYALGWSRQAPGKESELVAAITRRDDSTYYADSVKGRFTISRDKAKNTVYLQMNSLKPEDTAVYYCNASALDPLYAKDDYWGQGTQVTVSS,low polyreactivity
13,QVQLVESGGGLVQAGGSLRLSCAASGSIFPDYAMGWYRQAPGKERELVAAIDTSTTDTYYADSVKGRFTISRDNAKNTVYLQMNSLKPEDTAVYYCAADAYDDPYGYWGQGTQVTVSS,high polyreactivity
14,QVQLVESGGGLVQAGGSLRLSCAASGSIFPDYAMGWYRQAPGKERELVAAITTSGGNTYYADSVKGRFTISRDNAKNTVYLQMNSLKPEDTAVYYCAAEITYSYPGSPRRRDYWGQGTQLTVSS,low polyreactivity
15,QVQLVESGGGLVQAGGSLRLSCAASGSIFPDYAMGWYRQAPGKERELVAAITWRDDSTYYADSVKGRFTISRDNAKNTVYLQMNSLKPEDTAVYYCNASALDPLFAKDDYWGQGTQVTVSS,low polyreactivity
16,QVQLVESGGGLVQAGGSLRLSCAASGSIFPEYAMGWYRQAPGKEREFVATIRWSGDSTYYADSVKGRFTISRDNAKNTVYLQMNSLKPEDTAVYYCAADQGRYGIIGWDDYWGQGTQVTVSS,low polyreactivity
17,QVQLVESGGGLVQAGGSLRLSCAASGSIFPFYAMGWYRHAPGKERELVASISSGGSTNYADSVKGRFTISRDNAKNTVYLQMNSLKPEDTAVYYCNAVVPYRWDTWFQVVYPESYDYWGQGTQVTVSS,low polyreactivity
18,QVQLVESGGGLVQAGGSLRLSCAASGSIFPFYAMGWYRQAPGKERELVAAINYSAGSTYYADSVKGRFTISRDNAKYTVYLQMNSLKPEDTAVYYCAKEVSAYEMDYWGQGTQVTVSS,low polyreactivity
19,QVQLVESGGGLVQAGGSLRLSCAASGSIFPFYAMGWYRQAPGKERELVAAISSRGGSTYYADSVKGRFTISRDNAKNTVYLQMNSLKPEDTAVYYCAARDYSIKVRLGYWGQGTQVTVSS,low polyreactivity
20,QVQLVESGGGLVQAGGSLRLSCAASGSIFPFYAMGWYRQAPGKERELVAAITYSGGSTFYADSVKGRFTISRDNAKNTVYLQMNSLKPEDTAVYYCNAVWRFGSSKYYYWGHGTQVTVSS,high polyreactivity
21,QVQLVESGGGLVQAGGSLRLSCAASGSIFPFYAMGWYRQAPGKERELVAVISTRGGSTYYADSVKGRFTISRDYAKNTVYFQMKSLKPEDTAVYYCAAKSVYRMGYWGQGTQVTVSS,high polyreactivity

# Reference: the nanobody polyreactivity screen of Harvey et al. (2022)
